Experimental data published in patent US20210363262A1 (AIMED BIO, published 2021).

Legend:
[1] = target: c-Met on cancer cell lines (Caki-1 renal cell carcinoma; MKN45 c-Met-amplified gastric cancer) (UniProt P08581); assay: cell-based or functional assay
[2] = target: c-Met on cancer cell lines (Caki-1 renal cell carcinoma; MKN45 c-Met-amplified gastric cancer) (UniProt P08581 25-1390); assay: cell-based or functional assay
Chain of c-Met on cancer cell lines (Caki-1 renal cell carcinoma; MKN45 c-Met-amplified gastric cancer) (UniProt P08581 25-1390) (P08581 25-1390): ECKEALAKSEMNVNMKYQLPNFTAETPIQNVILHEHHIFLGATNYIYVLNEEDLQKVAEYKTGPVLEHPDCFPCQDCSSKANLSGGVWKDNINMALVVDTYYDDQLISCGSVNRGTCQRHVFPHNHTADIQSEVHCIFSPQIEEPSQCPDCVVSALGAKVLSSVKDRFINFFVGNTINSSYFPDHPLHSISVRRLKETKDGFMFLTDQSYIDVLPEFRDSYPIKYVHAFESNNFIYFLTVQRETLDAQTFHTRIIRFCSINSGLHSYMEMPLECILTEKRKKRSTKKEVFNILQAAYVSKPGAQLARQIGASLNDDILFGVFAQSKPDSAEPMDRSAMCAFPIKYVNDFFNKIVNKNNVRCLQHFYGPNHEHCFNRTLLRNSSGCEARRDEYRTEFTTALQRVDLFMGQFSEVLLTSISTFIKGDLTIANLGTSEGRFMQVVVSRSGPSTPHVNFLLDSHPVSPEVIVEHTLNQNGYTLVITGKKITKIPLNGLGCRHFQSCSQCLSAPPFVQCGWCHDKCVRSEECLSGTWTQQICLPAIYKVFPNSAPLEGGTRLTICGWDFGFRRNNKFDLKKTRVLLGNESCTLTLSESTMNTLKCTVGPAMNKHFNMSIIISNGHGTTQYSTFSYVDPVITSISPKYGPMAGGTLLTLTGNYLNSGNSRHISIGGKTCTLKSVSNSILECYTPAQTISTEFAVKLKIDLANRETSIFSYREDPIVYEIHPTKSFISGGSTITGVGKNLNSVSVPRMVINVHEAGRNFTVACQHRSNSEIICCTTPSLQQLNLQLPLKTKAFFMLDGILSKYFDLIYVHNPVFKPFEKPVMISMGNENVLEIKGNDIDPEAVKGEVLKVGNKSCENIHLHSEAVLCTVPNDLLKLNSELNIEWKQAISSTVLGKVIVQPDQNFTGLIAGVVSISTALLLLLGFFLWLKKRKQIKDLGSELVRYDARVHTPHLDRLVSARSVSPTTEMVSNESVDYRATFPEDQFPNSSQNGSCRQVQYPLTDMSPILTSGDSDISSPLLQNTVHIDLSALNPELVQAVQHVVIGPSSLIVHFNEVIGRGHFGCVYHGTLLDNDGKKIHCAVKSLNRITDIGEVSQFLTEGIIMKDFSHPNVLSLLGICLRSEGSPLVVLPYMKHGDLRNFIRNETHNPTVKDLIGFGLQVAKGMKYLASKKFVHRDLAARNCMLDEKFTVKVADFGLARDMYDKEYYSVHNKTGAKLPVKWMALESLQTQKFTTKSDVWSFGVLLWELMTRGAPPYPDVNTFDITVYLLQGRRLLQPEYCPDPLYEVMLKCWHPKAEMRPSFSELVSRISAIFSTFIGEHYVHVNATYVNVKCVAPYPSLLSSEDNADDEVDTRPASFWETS

Chain of c-Met on cancer cell lines (Caki-1 renal cell carcinoma; MKN45 c-Met-amplified gastric cancer) (UniProt P08581) (P08581 25-1390): as above

Question: “Onartuzumab (OA-5D5; monovalent c-Met antibody, Genentech)” was tested. Which agonist activity: Akt phosphorylation in Caki-1 cells, Mean (%) (PBS = 0%, HGF/SF = 100%) [1] did it give?
Answer: 30.5%

Question: How did the agonist activity: Akt phosphorylation in Caki-1 cells, Mean (%) (PBS = 0%, HGF/SF = 100%) [1] turn out when 5D5, c-Met agonist antibody was run?
Answer: 86%

Question: With “c-Met ligand HGF/SF (R&D systems) (from UniProt P14210 32-728)” as the molecule, how does the agonist activity: Akt phosphorylation in Caki-1 cells, Mean (%) (PBS = 0%, HGF/SF = 100%) [1] read?
Answer: 100%

B1: 1F12 (parent antibody), full-length human IgG1 (antibody, V domains shown)
VH: EVQLLESGGGLVQPGGSLRLSCAASGFTFSNYAMSWVRQAPGKGLEWVSGISYSGGSTYYADSVKGRFTISRDNSKNTLYLQMNSLRAEDTAVYYCAKASRSCQRPACSYANGMDVWGQGTLVTVSS
VL: QSVLTQPPSASGTPGQRVTISCTGSSSNIGNNYVTWYQQLPGTAPKLLIYYNNHRPSGVPDRFSGSKSGTSASLAISGLQSEDEADYYCGSWDYSLSAYVFGGGTKLTVL
Question: B1 was tested. Which “agonist activity: Akt phosphorylation in Caki-1 cells, Mean (%) (PBS = 0%, HGF/SF = 100%)” value (“agonist activity … (PBS = 0%, HGF/SF = 100%)” for short) [2] did it give?
Answer: 18.2%

B2: 1F12_L96D, full-length human IgG1 (antibody, V domains shown)
VH: EVQLLESGGGLVQPGGSLRLSCAASGFTFSNYAMSWVRQAPGKGLEWVSGISYSGGSTYYADSVKGRFTISRDNSKNTLYLQMNSLRAEDTAVYYCAKASRSCQRPACSYANGMDVWGQGTLVTVSS
VL: QSVLTQPPSASGTPGQRVTISCTGSSSNIGNNYVTWYQQLPGTAPKLLIYYNNHRPSGVPDRFSGSKSGTSASLAISGLQSEDEADYYCGSWDYSLSADVFGGGTKLTVL
Question: B2 was tested. Which “agonist activity … (PBS = 0%, HGF/SF = 100%)” value [2] did it give?
Answer: 21.2%

B3: 1F12_H57K, full-length human IgG1 (antibody, V domains shown)
VH: EVQLLESGGGLVQPGGSLRLSCAASGFTFSNYAMSWVRQAPGKGLEWVSGISYSGGSKYYADSVKGRFTISRDNSKNTLYLQMNSLRAEDTAVYYCAKASRSCQRPACSYANGMDVWGQGTLVTVSS
VL: QSVLTQPPSASGTPGQRVTISCTGSSSNIGNNYVTWYQQLPGTAPKLLIYYNNHRPSGVPDRFSGSKSGTSASLAISGLQSEDEADYYCGSWDYSLSAYVFGGGTKLTVL
Question: For B3, which “agonist activity … (PBS = 0%, HGF/SF = 100%)” value [2] is on record?
Answer: 26.8%

B4: 1F12_L50E, full-length human IgG1 (antibody, V domains shown)
VH: EVQLLESGGGLVQPGGSLRLSCAASGFTFSNYAMSWVRQAPGKGLEWVSGISYSGGSTYYADSVKGRFTISRDNSKNTLYLQMNSLRAEDTAVYYCAKASRSCQRPACSYANGMDVWGQGTLVTVSS
VL: QSVLTQPPSASGTPGQRVTISCTGSSSNIGNNYVTWYQQLPGTAPKLLIYENNHRPSGVPDRFSGSKSGTSASLAISGLQSEDEADYYCGSWDYSLSAYVFGGGTKLTVL
Question: With B4 as the molecule, how does the “agonist activity … (PBS = 0%, HGF/SF = 100%)” value [2] read?
Answer: 37.2%

B5: 1F12_L95aR, full-length human IgG1 (antibody, V domains shown)
VH: EVQLLESGGGLVQPGGSLRLSCAASGFTFSNYAMSWVRQAPGKGLEWVSGISYSGGSTYYADSVKGRFTISRDNSKNTLYLQMNSLRAEDTAVYYCAKASRSCQRPACSYANGMDVWGQGTLVTVSS
VL: QSVLTQPPSASGTPGQRVTISCTGSSSNIGNNYVTWYQQLPGTAPKLLIYYNNHRPSGVPDRFSGSKSGTSASLAISGLQSEDEADYYCGSWDYSLRAYVFGGGTKLTVL
Question: How did the “agonist activity … (PBS = 0%, HGF/SF = 100%)” value [2] turn out when B5 was run?
Answer: 29.5%

B6: 1F12_H100eH, full-length human IgG1 (antibody, V domains shown)
VH: EVQLLESGGGLVQPGGSLRLSCAASGFTFSNYAMSWVRQAPGKGLEWVSGISYSGGSTYYADSVKGRFTISRDNSKNTLYLQMNSLRAEDTAVYYCAKASRSCQRPACHYANGMDVWGQGTLVTVSS
VL: QSVLTQPPSASGTPGQRVTISCTGSSSNIGNNYVTWYQQLPGTAPKLLIYYNNHRPSGVPDRFSGSKSGTSASLAISGLQSEDEADYYCGSWDYSLSAYVFGGGTKLTVL
Question: For B6, which “agonist activity … (PBS = 0%, HGF/SF = 100%)” value [2] is on record?
Answer: 27.5%

B7: 1F12_L51D, full-length human IgG1 (antibody, V domains shown)
VH: EVQLLESGGGLVQPGGSLRLSCAASGFTFSNYAMSWVRQAPGKGLEWVSGISYSGGSTYYADSVKGRFTISRDNSKNTLYLQMNSLRAEDTAVYYCAKASRSCQRPACSYANGMDVWGQGTLVTVSS
VL: QSVLTQPPSASGTPGQRVTISCTGSSSNIGNNYVTWYQQLPGTAPKLLIYYDNHRPSGVPDRFSGSKSGTSASLAISGLQSEDEADYYCGSWDYSLSAYVFGGGTKLTVL
Question: How did the “agonist activity … (PBS = 0%, HGF/SF = 100%)” value [2] turn out when B7 was run?
Answer: 42.5%

B8: 1F12_H53D, full-length human IgG1 (antibody, V domains shown)
VH: EVQLLESGGGLVQPGGSLRLSCAASGFTFSNYAMSWVRQAPGKGLEWVSGISYDGGSTYYADSVKGRFTISRDNSKNTLYLQMNSLRAEDTAVYYCAKASRSCQRPACSYANGMDVWGQGTLVTVSS
VL: QSVLTQPPSASGTPGQRVTISCTGSSSNIGNNYVTWYQQLPGTAPKLLIYYNNHRPSGVPDRFSGSKSGTSASLAISGLQSEDEADYYCGSWDYSLSAYVFGGGTKLTVL
Question: Which “agonist activity … (PBS = 0%, HGF/SF = 100%)” value [2] does the source give for B8 here?
Answer: 24.5%

B9: 1F12_L26D, full-length human IgG1 (antibody, V domains shown)
VH: EVQLLESGGGLVQPGGSLRLSCAASGFTFSNYAMSWVRQAPGKGLEWVSGISYSGGSTYYADSVKGRFTISRDNSKNTLYLQMNSLRAEDTAVYYCAKASRSCQRPACSYANGMDVWGQGTLVTVSS
VL: QSVLTQPPSASGTPGQRVTISCTGDSSNIGNNYVTWYQQLPGTAPKLLIYYNNHRPSGVPDRFSGSKSGTSASLAISGLQSEDEADYYCGSWDYSLSAYVFGGGTKLTVL
Question: B9 was tested. Which “agonist activity … (PBS = 0%, HGF/SF = 100%)” value [2] did it give?
Answer: 38.1%

B10: 1F12_L27bD, full-length human IgG1 (antibody, V domains shown)
VH: EVQLLESGGGLVQPGGSLRLSCAASGFTFSNYAMSWVRQAPGKGLEWVSGISYSGGSTYYADSVKGRFTISRDNSKNTLYLQMNSLRAEDTAVYYCAKASRSCQRPACSYANGMDVWGQGTLVTVSS
VL: QSVLTQPPSASGTPGQRVTISCTGSSSDIGNNYVTWYQQLPGTAPKLLIYYNNHRPSGVPDRFSGSKSGTSASLAISGLQSEDEADYYCGSWDYSLSAYVFGGGTKLTVL
Question: B10 was tested. Which “agonist activity … (PBS = 0%, HGF/SF = 100%)” value [2] did it give?
Answer: 30.3%

B11: 1F12_H58D, full-length human IgG1 (antibody, V domains shown)
VH: EVQLLESGGGLVQPGGSLRLSCAASGFTFSNYAMSWVRQAPGKGLEWVSGISYSGGSTDYADSVKGRFTISRDNSKNTLYLQMNSLRAEDTAVYYCAKASRSCQRPACSYANGMDVWGQGTLVTVSS
VL: QSVLTQPPSASGTPGQRVTISCTGSSSNIGNNYVTWYQQLPGTAPKLLIYYNNHRPSGVPDRFSGSKSGTSASLAISGLQSEDEADYYCGSWDYSLSAYVFGGGTKLTVL
Question: With B11 as the molecule, how does the “agonist activity … (PBS = 0%, HGF/SF = 100%)” value [2] read?
Answer: 21.5%

B12: 1F12_H60N, full-length human IgG1 (antibody, V domains shown)
VH: EVQLLESGGGLVQPGGSLRLSCAASGFTFSNYAMSWVRQAPGKGLEWVSGISYSGGSTYYNDSVKGRFTISRDNSKNTLYLQMNSLRAEDTAVYYCAKASRSCQRPACSYANGMDVWGQGTLVTVSS
VL: QSVLTQPPSASGTPGQRVTISCTGSSSNIGNNYVTWYQQLPGTAPKLLIYYNNHRPSGVPDRFSGSKSGTSASLAISGLQSEDEADYYCGSWDYSLSAYVFGGGTKLTVL
Question: With B12 as the molecule, how does the “agonist activity … (PBS = 0%, HGF/SF = 100%)” value [2] read?
Answer: 27.7%

B13: 1F12_H35H, full-length human IgG1 (antibody, V domains shown)
VH: EVQLLESGGGLVQPGGSLRLSCAASGFTFSNYAMHWVRQAPGKGLEWVSGISYSGGSTYYADSVKGRFTISRDNSKNTLYLQMNSLRAEDTAVYYCAKASRSCQRPACSYANGMDVWGQGTLVTVSS
VL: QSVLTQPPSASGTPGQRVTISCTGSSSNIGNNYVTWYQQLPGTAPKLLIYYNNHRPSGVPDRFSGSKSGTSASLAISGLQSEDEADYYCGSWDYSLSAYVFGGGTKLTVL
Question: B13 was tested. Which “agonist activity … (PBS = 0%, HGF/SF = 100%)” value [2] did it give?
Answer: 17.3%

B14: 1F12_H6L5, full-length human IgG1 (antibody, V domains shown)
VH: EVQLLESGGGLVQPGGSLRLSCAASGFTFSNYAMSWVRQAPGKGLEWVSGISYSGGSTYYADSVKGRFTISRDNSKNTLYLQMNSLRAEDTAVYYCAKASRSCQRPACHYANGMDVWGQGTLVTVSS
VL: QSVLTQPPSASGTPGQRVTISCTGSSSNIGNNYVTWYQQLPGTAPKLLIYYNNHRPSGVPDRFSGSKSGTSASLAISGLQSEDEADYYCGSWDYSLRAYVFGGGTKLTVL
Question: B14 was tested. Which “agonist activity … (PBS = 0%, HGF/SF = 100%)” value [2] did it give?
Answer: 18.2%

B15: 1F12_H2L6, full-length human IgG1 (antibody, V domains shown)
VH: EVQLLESGGGLVQPGGSLRLSCAASGFTFSNYAMSWVRQAPGKGLEWVSGISYDGGSTYYADSVKGRFTISRDNSKNTLYLQMNSLRAEDTAVYYCAKASRSCQRPACSYANGMDVWGQGTLVTVSS
VL: QSVLTQPPSASGTPGQRVTISCTGSSSNIGNNYVTWYQQLPGTAPKLLIYYNNHRPSGVPDRFSGSKSGTSASLAISGLQSEDEADYYCGSWDYSLSADVFGGGTKLTVL
Question: B15 was tested. Which “agonist activity … (PBS = 0%, HGF/SF = 100%)” value [2] did it give?
Answer: 26%

B16: 1F12_H3L5, full-length human IgG1 (antibody, V domains shown)
VH: EVQLLESGGGLVQPGGSLRLSCAASGFTFSNYAMSWVRQAPGKGLEWVSGISYSGGSKYYADSVKGRFTISRDNSKNTLYLQMNSLRAEDTAVYYCAKASRSCQRPACSYANGMDVWGQGTLVTVSS
VL: QSVLTQPPSASGTPGQRVTISCTGSSSNIGNNYVTWYQQLPGTAPKLLIYYNNHRPSGVPDRFSGSKSGTSASLAISGLQSEDEADYYCGSWDYSLRAYVFGGGTKLTVL
Question: Which “agonist activity … (PBS = 0%, HGF/SF = 100%)” value [2] does the source give for B16 here?
Answer: 18.9%

B17: 1F12_H2L3, full-length human IgG1 (antibody, V domains shown)
VH: EVQLLESGGGLVQPGGSLRLSCAASGFTFSNYAMSWVRQAPGKGLEWVSGISYDGGSTYYADSVKGRFTISRDNSKNTLYLQMNSLRAEDTAVYYCAKASRSCQRPACSYANGMDVWGQGTLVTVSS
VL: QSVLTQPPSASGTPGQRVTISCTGSSSNIGNNYVTWYQQLPGTAPKLLIYENNHRPSGVPDRFSGSKSGTSASLAISGLQSEDEADYYCGSWDYSLSAYVFGGGTKLTVL
Question: How did the “agonist activity … (PBS = 0%, HGF/SF = 100%)” value [2] turn out when B17 was run?
Answer: 24.5%
